The values below come from a protein production outcome set (Wang et al. 2014).

The data set in a line: label from the status in PepcDB records.
On to “MSLESGFLEDAQANLTLRNFYFNRNFTNPTKAQGKAEEWTQSFILDAKSGFTQGTVGFGMDVLGLYSLKLDGGKGTGGTQLLPLDHDGRPADNFGRLGVAFKARLSQTEVKVGEWMPVLPILRSDDGRSLPQTFRGGQITSKEIAGLTLYGGQFRANSPRDDSSMSDMSMFGKAAFTSDRFNFQGAEYAFNDKRTQIALWNAQLKDIYSQQFINLIHSQPLGDWTLGANLGFFYGKEDGSARAGDMENRTWSGLFSAKYGGNTFYVGLQKLTGDSAWMRVNGTSGGTLANDSYNASYDNAKEKSWQVRHDYNFAALGVPGLTLMNRYISGSNVHTATVSDGKEWGRESEVAYTVQSGTLKNLNLKWRNSTMRRDFSNNEFDENRLIISYPLSLLEGHHHHHH”, for which the protein production entry was “not failed”.

As to “MSDKRNPRISSRKQPQQARSSELVASILEAAVQVLASEGAQRFTTARVAERAGVSIGSLYQYFPNKAAILFRLQSDEWRRTTRLLGEILEDTTRPPLERLRRLVLAFVRSECEEAAIRVALSDAAPLYRDADEAREVKAEGARVFQAFLREALPEVAEAERSLAGDLLTTTLGAVGKQFSEQPRSEAEIERYAEALADMLCAYLAALGER”, the protein production entry is “not failed”.

Take “MVVVCASHIQPAIICRFTWLRFLMEIILIRHGKPTSANNPVLNAVDFTKWVRRYNFSDVSTNSRPDSILDEYKSHYIVSSDLERAIHSASIYTGQSPELTSKLYREMEIPRYKFPLRFKAMTWVYINRAFWMLGLKGSFESYRQAKIRAELASDHLVELAREQDKVILFGHGYLNLHIRRSLIKKGWKLNSKSNGFWGISSLEG”: the protein production result is listed as “failed”.

On to “LGNEDFNSVIQQMAQGRQIEYIDIERPSTGGLGFSVVALRSQNLGKVDIFVKDVQPGSVADRDQRLKENDQILAINHTPLDQNISHQQAIALLQQTTGSLRLIVAREPVHTKSST”, for which the protein production result is “not failed”.

As for “MAQSNSRETFSSRLGFILAAAGAAVGLGNIWGFPTQAASNGGGAFLLVYLILIFVVAFPMLVVEMAIGRYGQANPVDSMRSLTSQPAAKKVGGFVGWVGLSVPSAVLAFYSIVGGWIICFLLGAMTDLFGFTAASAWLKGFSVERNLFGTLIFYVLTILIVQGGVKQGIERWSTRLMPALFVLFAVLFIYIMTQQGAWEGLKHYLIPDFEKVWDRKLILAAMGQGFFSLTIGGCSMLIYGSYLSKKENLPKMAMSVTLVDTAVAFIAGLVVLPAMFVAMNKGVQIYAQDGSLLSSDTLVFTVLPLMFDSLGLLGQIFAMVFFLLLTIAALTSSISMLECPVALVGERFNTRRTPTSWVLGGLIALFSVVIVYNFGALFGLVATLATQYLQPTAALMFCLFGGWVWQRDAKMKELQAGFPELQQSLFGKIWPWYVKFVCPVLVATVIWASFG”, the protein production entry was “failed”.

In the case of “MFEMGIQELVKTIDTNINHMISLSVLNLAQLGIKYGIFKAVASRPSYEELLSQIPVPNKPLLKKLIEHLKALGIIEETPSNLILNGFSYVLKFPKEDYMLLLSDWIPIWEEIYKMVDFALISYSHPYVLMDFDKDADFWDIRLSSSFNKTYRDAIINLGEIREDSYILDLGCGSVSPAYFGKFISEDGKYVGVDYSPGLLEIARERVERNGLPAELKEMDVSLIRTRSKYDVAIMSFLLEYVRDREEVLGKVLEALDSGGKLIIVEAFRDEFENIQAMEFFESLNRSFVGYPAKAEIKKAILREGFDVSFEDYGKSILVVRKL”, the protein production entry is “failed”.

As to “MTQRPRQDERAKDVWFEYVLTAGRFSAWPIRWQGWLATALLIVGPITGMMAIAKLAPGVPPFVLVLGAMTVCFGTVFPLAYFKGRPAKSRG”, the protein production entry was “failed”.

On to “MLVSLIYVFKQVLSANLDLFYILSLILLIKSLIKKEKYLIKLLYVIYIILFYTGIQIIFLNTSIDLIRYFVSSFKLILNFNLLFYIIKKIKFININKIIKNISYIFFIILVFALILRNNNILWRLNDYVNTFEEVRLRFFYYEPSELGFQVAIIIIIFVFKIYTKKIINKKDFCIIIFLSIILSLTSAYGAIISLMLALIPILFKSFKLNSYKKLLIAYSIILISIVIIYLNFYKISDSYIVQRGLSIISGEDGSVNYRFDIGLNIMINALKNTNLLGVGLSNANTDNFIIEYSNFGLVEVIANSFMYVITELGVLAVVFLVYLLIKCLISAKINNSILKLSLIIYIFSYQIAGGYFSNPTNWIIYGIILSNIKDEELFGRKD”, for which the protein production entry is “failed”.

As for “MTISEVSKKYELSADTLRYYERIGLIPPVNRNKSGIRSFTEEDCEWVNFIKCMRGAGLSIETLIEYVAMFQQGSSTIKARKELLIEQRNQLAKRIEEMQKTLERLNFKIDRYEEGIIEKEKVLKSSRNKKMEAVSYE”, the protein production result is “not failed”.

Take “MTKISKAACIGGGVIGGGWIARFLLAGIDVDVFDPHPEAGRIVGEIIANAEKAYAMLTGAPLPPRGKLTFCETLAEAVADADWIQESVPERLDLKRGVLTEIDAAARPEALIGSSTSGLLPTDLQRNMTHPERLFVAHPYNPVYLLPLVEIVGGEKTSAGTIRAAIERLAPIGMKGVHIAKEIEAFVGDRLLEALWREALWLIHDDICTVETLDDVIRYSFGLRWAQMGLFQTYRIAGGEAGMRHFLAQFGPCLAWPWTKLTDVVDLDDALIEKIGRQSDEQAAGLSIRALERIRDENLVGILQALKGGDNGKGWGAGKLLKDFEQTLWARGGDAAASADPSKPLRLVETKVSPAWVDYNGHMTEHRYLQVFGDTSDALLRLIGVDLAYVEAGHSYYTVESHIRHLGEAKLGQAIHSACQILTADEKRLHVFHTLRDTATGAVIATAEQMLLHVDSKEGKAVAAPAAVLDRVKAIAAAHAELALPEGAGRHVGQRR”: the protein production result was “failed”.

Regarding “ESPLYCVMAKADGPVQGLADLKGRKVGFSVAGIEEALLHTMLRTNGVEPAEVEFVNVNFALTPALASGQADAVAGAFRNFELHQIAAAGSEGRCFLPEENGVPSYEELIYVANPDRMDREKVVAFLKVTERAAGFIADHPEEAWEIFRG”, the protein production result is “failed”.

Turning to “MKKGRGYVYKLEYHLIWATKYRHQVLVDEVADGLKDILRDIATQNGLELVALEVMPDYVHLLLGATPQHVIPDFVKALKGASARRMFSAFPHLKQPHWGGNLWNPSYCVLTVSEHTRAQIQQYIENQHAAE”, the protein production entry is given as “not failed”.

Regarding “MGFKCGIVGLPNVGKSTLFNALTKAGIEAANFPFCTIEPNTGVVPMPDPRLDQLAEIVKPQRTLPTTMEFVDIAGLVKGASKGEGLGNQFLTNIRETEAIGHVVRCFENDNIIHVSGKVNPADDIEVINTELALADLDTCERAIHRVQKKAKGGDKDAKAELAVLEKCLPQLENAGMLRALDLSAEEKAAIRYLSFLTLKPTMYIANVNEDGFENNPYLDQVREIAAKEGSVVVPVCAAVEADIAELDDEERDEFMQELGLEEPGLNRVIRAGYKLLNLQTYFTAGVKEVRAWTIPVGATAPQAAGKIHTDFEKGFIRAQTISFEDFITYKGEQGAKEAGKMRAEGKDYIVKDGDVMNFLFNV”, the protein production result was “not failed”.

For “MHLPPKLALTTGVLLVALPLATPAWGQPPTPASPLVQQLNNGNWLDPKEAETLRDELYYQRAIHAYMTMLPALNVIGMRDGSEKVFGAGYNVLPVWKERMDARTMVPTPNADVIYSMSYLDLKKTGPLVVKAPANVIGMFTDFFQRTLTDVGAIGPDRARGGLYLILPPDYDGHVPSSYFVVKSPTYNVFLFFRTIMGQGKGKPDPAPAVKAAETTRVYPLWAEEKDIKPMEFPDGSGKHINMMYPVDQEYWTKLKEFVDYEPVSAIDPELRGVLASIGIVKGQPFKPTAREQELLKRAVETAPKMILAMRQLGREDKRHLYYKDRQWERAWAGATAEWMQDSYLDVNQRATFFQIAYSSAPAMVMRTTGAGSKYPFTARDANGEFLNGSATYKLRMPPDAPAALFWAVTAYNVTDGTMPETDQLMPSTNGYYDIPKQKDGSTEIWFGPQKPADVADAAFIKTIPNRNFLVTLRLYGAEDAFYDQTWKPDDVVKVKLEHHHHHH”, the protein production result is on record as “not failed”.

On to “MLQRLFIFLLIFLILPDIYLYLRFIVHLTAKRWLRILYWLPAFLLSAGLLYLVYFSNNAFAERHTQAIGWFSIFFFLFTAPKLLLSLCTIIGVPFHKWLRWPRTPFICTGLTLAVISIVMIIYGSFIGRTQFDVKEVTYSSPKLPSAFDGYRIVQLSDIHIGSWQGNASAIQKLVKLVNEQQADLIVFTGDLVNHRAVELNDFQDILAGLKAKDGVYSILGNHDYGPYFHWKSKDEQDDNLNDLLQRQAAMGWKLLNNSHTILIQGSDSIALIGVENEGEPPFSQYADLPEAMRGTEGMFQILLSHNPTHWRREVLPQTYIDLMLAGHTHAMQLKFGNHSPSSYIYPEWSGMYLEGTRGLYVNEGIGYVGLPFRFGAWPEITVLTLRQ”, for which the protein production result is listed as “failed”.

Take “MGDPFGGRFGGFRGSLFGGRDPFDDPFFSRPFEDLLEPSNTFSSGASFSNAHKNNGGRGLTIEELPSDEEVEERKDIGIDDQEHASSVNKPSVEHPEDDSDAERKIQNVNQRSDFNRREGTQSRANTFRHHISKVTYGGIHGAYYTSTRTRRKDGDGMVVEESKEADKTTGEATHRISRGINDKVIDYTVDGHSVTRKLNSSGGVESTQTLHNLDEGPAESTQPYHNLKFFERKLAGF”: the protein production entry is reported as “failed”.

Consider “MGGGPALNRDSSRHARPFISSPVKTLAIIPAFNEAQAIGPVLGDLPDGWVDEVVVVNNASTDATKANARAAGATVVDEPQQGYGAACLRGIAYAETRQPDVVVFLDGDYSDHPEELPRLVEPIAADEADFVVGSRIRGDAEPGALLPQAQVGNRFACSLMARLWGADYTDLGPFRAIRFRDLLALDMQDETFGWTIEMQIRALEAGLRVEEVPVSYRRGIGPSKITGTLSGTVKASAKILWTIGRMAATTHRRAPRLRERVDRARTDAPTPNPGGLEHHHHHH”, for which the protein production entry is “failed”.

“HFPARVKVEPAVDTSRIKVFGPGIEGKDVFREATTDFTVDSRPLTQVGGDHIKAHIANPSGASTECFVTDNADGTYQVEYTPFEKGLHVVEVTYDDVPIPNSPFKVAVTEGCQPS”: the protein production result is reported as “not failed”.

“MKFNEFLNNLSNYEPGKDIEVIAKEYGVKEVIKLASNENPFGTPPKAIECLRQNANKAHLYPDDSMIELKSTLAQKYKVQNENIIIGAGSDQVIEFAIHSKLNSKNAFLQAGVTFAMYEIYAKQCGAKCYKTQSITHNLDEFKKLYETHKDEIKLIFLCLPNNPLGECLDASEATEFIKGVNEDCLVVIDAAYNEFASFKDSKKHLEPCELIKEFDNVLYLGTFSKLYGLGGLRIGYGIANANIISAFYKLRAPFNVSNLALKAAVAAMDDDEFTEKTLENNFSQMELYKEFAKKHNIKIIDSYTNFITYFFDEKNSTDLSEKLLKKGIIIRNLKSYGLNAIRITIGTSYENEKFFTEFDKILR”: the protein production result is on record as “not failed”.

Take “MSAVCGGAARMLRTPGRHGYAAEFSPYLPGRLACATAQHYGIAGCGTLLILDPDEAGLRLFRSFDWNDGLFDVTWSENNEHVLITCSGDGSLQLWDTAKAAGPLQVYKEHAQEVYSVDWSQTRGEQLVVSGSWDQTVKLWDPTVGKSLCTFRGHESIIYSTIWSPHIPGCFASASGDQTLRIWDVKAAGVRIVIPAHQAEILSCDWCKYNENLLVTGAVDCSLRGWDLRNVRQPVFELLGHTYAIRRVKMESCPVTQTRSQLTATSAFWVQAVLLPQPTE”: the protein production result was “failed”.

For “MAYVSMGEAHRRITEYLNRFCDAVSYQDSSTLCRLLSFSSNSPPLLSLADALNVFQDSSSLIRQSDRFSEYGEILAHVFRSLQSYRVGNLVEAYLAFDKFANAFVQEFRNWESAWALEALYVVCYEIRVLAEKADKDLTSNGKSPEKLKAAGSLLMKVFGVLAGKGPKRVGALYVTCQLFKTYFKLGTVNLCRSVIRSIETARIFDFEEFPRRDKVTYMYYTGRLEVFNENFPAADTKLSYALQNCNPKRERNIRMILKYLVPVKLSLGIIPKDELLRNYNLHEYTKIVQALRKGDLRLLRHALQEHEDRFLRSGVYLVLEKLELQVYQRLMKKIYINQKLSDPARAHQLKLEGIAKALRWLDMDMDLDEVECIMTILIYKNLVKGYLAHKSKVVVLSKQDPFPKLNGKPVSS”, the protein production result is “failed”.
